Reference: the RNAGym collection of RNA variant scans (doi:10.7554/elife.80360)

B1: Hairpin Ribozyme (parent)
chain: GUCCUCUUUCACGUGCGCGUGAAAGAGAGAAGUGAACCAGAGAAACACACGUUGUGGUAUAUUACCUGGUA

Variants of: B1
Assay: self-cleavage, relative activity (ratio to wild type); higher = more cleavage; co-transcriptional
U55C A61G showed a self-cleavage of 0.181.
Work on U62A U67C yielded a self-cleavage of 0.134.
In the case of U62A U67A, the self-cleavage is reported as 0.134.
G56A C65A gave a self-cleavage of 0.097.
With G56A C65G the self-cleavage was 0.214.
For U55G A71C, the self-cleavage was 0.708.
For G56U G57C, the self-cleavage was 0.144.
G56U G57U gave a self-cleavage of 0.204.
With G56U G57A the self-cleavage was 0.222.
G56C G57A showed a self-cleavage of 0.115.
G57A U58C showed a self-cleavage of 0.21.
For G57A U58A, the self-cleavage was 0.169.
In the case of G57A U58G, the self-cleavage is reported as 0.123.
With U58A A71G the self-cleavage was 0.768.
With A59U U62C the self-cleavage was 0.185.
Work on A59U U62G yielded a self-cleavage of 0.262.
A59U U62A showed a self-cleavage of 0.326.
For U55C G68U, the self-cleavage was 0.0915.
In the case of U55C G68C, the self-cleavage is reported as 0.159.
Variant G57U G69A has a self-cleavage of 0.149.
Work on G56U A61U yielded a self-cleavage of 0.124.
For G56A A71C, the self-cleavage was 0.404.
In the case of A61G G69C, the self-cleavage is reported as 0.156.
With A61G G69U the self-cleavage was 0.128.
U55G C66A showed a self-cleavage of 0.201.
Variant U63A U70G has a self-cleavage of 0.151.
For U58A C66G, the self-cleavage was 0.165.
U62G U70C gave a self-cleavage of 0.18.
For U62G U70G, the self-cleavage was 0.352.
Work on G56C U62C yielded a self-cleavage of 0.244.
For U62C A64G, the self-cleavage was 0.18.
In the case of U60G U70A, the self-cleavage is reported as 0.572.
Work on U60G U70C yielded a self-cleavage of 0.372.
In the case of U55C U70G, the self-cleavage is reported as 0.203.
In the case of U60G G69U, the self-cleavage is reported as 0.101.
For G57C C66A, the self-cleavage was 0.15.
Work on G56C G69A yielded a self-cleavage of 0.135.
G56U A59G gave a self-cleavage of 0.238.
With G57A U70A the self-cleavage was 0.134.
G57C U63G showed a self-cleavage of 0.18.
Work on G57U A71G yielded a self-cleavage of 0.254.
Variant U60A G69U has a self-cleavage of 0.129.
Variant U60A G69C has a self-cleavage of 0.336.
In the case of U60A G69A, the self-cleavage is reported as 0.183.
For G56U G68U, the self-cleavage was 0.276.
G56C C65A showed a self-cleavage of 0.274.
G57U G68A gave a self-cleavage of 0.188.
Variant G57U G68C has a self-cleavage of 0.211.
G57C A64G showed a self-cleavage of 0.126.
A61G A71U showed a self-cleavage of 0.393.
In the case of U60G U67C, the self-cleavage is reported as 0.121.
Variant A59C U70C has a self-cleavage of 0.151.
For A59C U70G, the self-cleavage was 0.141.
For G56C A61G, the self-cleavage was 0.155.
Variant U58A U67G has a self-cleavage of 0.135.
Work on U60C A61U yielded a self-cleavage of 0.296.
Work on A59G G69A yielded a self-cleavage of 0.125.
A59G G69U showed a self-cleavage of 0.15.
In the case of G56C C66U, the self-cleavage is reported as 0.199.
G56C C66G showed a self-cleavage of 0.209.
Work on G56C C66A yielded a self-cleavage of 0.156.
Variant A61G U70A has a self-cleavage of 0.154.
G56C A59U gave a self-cleavage of 0.173.
U60G A64U showed a self-cleavage of 0.202.
For U55G A59G, the self-cleavage was 0.139.
In the case of U55G A59C, the self-cleavage is reported as 0.156.
Work on U58G G68A yielded a self-cleavage of 0.208.
For U58G G68C, the self-cleavage was 0.178.
For G56U U62C, the self-cleavage was 0.122.
G56U U62A gave a self-cleavage of 0.186.
Work on U55A C66G yielded a self-cleavage of 0.24.
For U55A C66U, the self-cleavage was 0.258.
With U58G A61C the self-cleavage was 0.32.
With U58G A61G the self-cleavage was 0.111.
A61U G69A gave a self-cleavage of 0.145.
A61U G69U showed a self-cleavage of 0.152.
With A61U G69C the self-cleavage was 0.283.
G57C A61G gave a self-cleavage of 0.0894.
Variant U55C U60G has a self-cleavage of 0.347.
U55C U60A showed a self-cleavage of 0.168.
In the case of U58C A71C, the self-cleavage is reported as 1.21.
A59U A61C showed a self-cleavage of 0.0374.
A59U A61U showed a self-cleavage of 0.168.
Variant A61G U62A has a self-cleavage of 0.198.
Variant U58C A59G has a self-cleavage of 0.272.
With U58C A59C the self-cleavage was 0.304.
Work on U55A A64U yielded a self-cleavage of 0.302.
Variant U55G U67A has a self-cleavage of 0.219.
In the case of A59G A64G, the self-cleavage is reported as 0.176.
Variant A59G A64C has a self-cleavage of 0.273.
Variant U55C U63C has a self-cleavage of 0.233.
With U55G U60C the self-cleavage was 0.408.
With A61G C66U the self-cleavage was 0.277.
Work on G57U A61C yielded a self-cleavage of 0.0714.
For U60A U63C, the self-cleavage was 0.151.
Work on U60A U63A yielded a self-cleavage of 0.164.
U55A G68A gave a self-cleavage of 0.163.
Variant U55C U62G has a self-cleavage of 0.132.
In the case of G57U C66G, the self-cleavage is reported as 0.
U60A U70A gave a self-cleavage of 0.61.
In the case of U60A U70C, the self-cleavage is reported as 0.626.
U55G C65A gave a self-cleavage of 0.3.
A61U G68U gave a self-cleavage of 0.153.
With U58A U62C the self-cleavage was 0.12.
In the case of G56C A64U, the self-cleavage is reported as 0.0562.
In the case of A59G A61C, the self-cleavage is reported as 0.39.
For U60G G68A, the self-cleavage was 0.201.
With U58C G69U the self-cleavage was 0.302.
For U55G G68C, the self-cleavage was 0.251.
Variant U55G G68A has a self-cleavage of 0.237.
For U55C C65U, the self-cleavage was 0.27.
Work on G57A U67G yielded a self-cleavage of 0.191.
Variant G57A U67C has a self-cleavage of 0.123.
With U58G A59C the self-cleavage was 0.149.
For U58G A59U, the self-cleavage was 0.242.
In the case of G56U U58A, the self-cleavage is reported as 0.0912.
For U60G A71C, the self-cleavage was 1.01.
With U60G A71G the self-cleavage was 0.672.
Work on U62C G69U yielded a self-cleavage of 0.169.
For U55G U70C, the self-cleavage was 0.264.
U60C C66G showed a self-cleavage of 0.0763.
In the case of U62C, the self-cleavage is reported as 0.268.
U62G showed a self-cleavage of 0.179.
With U62A the self-cleavage was 0.185.
A59U U60G gave a self-cleavage of 0.172.
In the case of A59U U60C, the self-cleavage is reported as 0.257.
U60G C65A gave a self-cleavage of 0.453.
U60G C65G showed a self-cleavage of 0.442.
With U55C G57U the self-cleavage was 0.299.
In the case of U58A U63A, the self-cleavage is reported as 0.14.
In the case of U55G G69A, the self-cleavage is reported as 0.178.
For A59G C66G, the self-cleavage was 0.228.
In the case of G56A G69U, the self-cleavage is reported as 0.258.
With A61C C66G the self-cleavage was 0.101.
Work on A61C C66U yielded a self-cleavage of 0.145.
Work on A61C C66A yielded a self-cleavage of 0.0988.
Variant G56C U58C has a self-cleavage of 0.246.
G56C U58A showed a self-cleavage of 0.2.
U60C A64G gave a self-cleavage of 0.614.
In the case of U58C A64U, the self-cleavage is reported as 0.0829.
With G57U U62C the self-cleavage was 0.158.
Work on A59C A61C yielded a self-cleavage of 0.0887.
A59C A61G showed a self-cleavage of 0.207.
Variant U60C U67A has a self-cleavage of 0.324.
Variant U63A U67C has a self-cleavage of 0.14.
U63A U67G showed a self-cleavage of 0.118.
U63A U67A showed a self-cleavage of 0.208.
For G57U A59U, the self-cleavage was 0.411.
U63A C66U gave a self-cleavage of 0.258.
U63A G69U showed a self-cleavage of 0.17.
G57C A71U gave a self-cleavage of 0.157.
Variant G57C A71G has a self-cleavage of 0.201.
In the case of G57C A71C, the self-cleavage is reported as 0.356.
With A59U C65G the self-cleavage was 0.218.
G56C U70A showed a self-cleavage of 0.272.
With G56C U70C the self-cleavage was 0.134.
G56U C66A showed a self-cleavage of 0.208.
Work on G56C A71C yielded a self-cleavage of 0.315.
In the case of U58G U62G, the self-cleavage is reported as 0.304.
G57C U62A showed a self-cleavage of 0.183.
With G57C U62C the self-cleavage was 0.15.
G56A A64C gave a self-cleavage of 0.0783.
Variant G56A A64U has a self-cleavage of 0.135.
For G56A A64G, the self-cleavage was 0.12.
A59C U62C showed a self-cleavage of 0.0999.
Variant A59C U62G has a self-cleavage of 0.123.
U55A U67C showed a self-cleavage of 0.149.
